Measurements: patent publication US20230183713A1, “SITE-SPECIFIC RECOMBINASES FOR EFFICIENT AND SPECIFIC GENOME EDITING” (TECHNISCHE UNIVERSITÄt DRESDEN, published 2023)
Changes are numbered by the printed parent chain. Names and notes keep the numbering of the source.

Assays:
[1] = target: T1, Cre recombinase monomer with Y324N mutation
T1 chain: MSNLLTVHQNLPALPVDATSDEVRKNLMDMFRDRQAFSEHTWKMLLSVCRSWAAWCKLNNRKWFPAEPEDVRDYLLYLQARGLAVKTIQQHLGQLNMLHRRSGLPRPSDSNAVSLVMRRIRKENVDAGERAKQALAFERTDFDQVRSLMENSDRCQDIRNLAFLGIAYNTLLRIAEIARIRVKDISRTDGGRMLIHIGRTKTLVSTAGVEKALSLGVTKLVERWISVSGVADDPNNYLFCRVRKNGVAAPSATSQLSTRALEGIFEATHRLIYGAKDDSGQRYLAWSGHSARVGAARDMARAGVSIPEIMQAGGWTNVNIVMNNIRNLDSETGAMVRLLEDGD

[2] = target: T2, Cre recombinase monomer with Y324H mutation
T2 chain: T1 chain with N324H

[3] = target: T3, Cre recombinase monomer with Y324Q mutation
T3 chain: T1 chain with N324Q

[4] = target: T4, Cre recombinase monomer with Y324I mutation
T4 chain: T1 chain with N324I

[5] = target: T5, Cre recombinase monomer with W315V mutation
T5 chain: T1 chain with W315V, N324Y

[6] = target: T6, Cre recombinase monomer with W315T mutation
T6 chain: T1 chain with W315T, N324Y

[7] = target: T7, Cre recombinase monomer with W315C mutation
T7 chain: T1 chain with W315C, N324Y

[8] = target: T8, Cre recombinase monomer with Y324R mutation
T8 chain: T1 chain with N324R

B1: Cre recombinase monomer with Q311R mutation (protein)
chain: T1 chain with Q311R, N324Y
Median dimer activity (recombination on loxP) [1]: 81%
Median dimer activity (recombination on loxP) [2]: 76%
Median dimer activity (recombination on loxP) [3]: 72%
Median dimer activity (recombination on loxP) [4]: 96%
Median dimer activity (recombination on loxP) [5]: 91%
Median dimer activity (recombination on loxP) [6]: 66%
Median dimer activity (recombination on loxP) [7]: 84%
Median dimer activity (recombination on loxP) [8]: 61%
